Target: T1, Centromere protein F (CENPF) (human, UniProt P49454 1-3111, limits assumed)
T1 construct: also called CENF; PRO 1779
Assay: co-immunoprecipitation

T1 sequence (P49454 1-3111 limits assumed): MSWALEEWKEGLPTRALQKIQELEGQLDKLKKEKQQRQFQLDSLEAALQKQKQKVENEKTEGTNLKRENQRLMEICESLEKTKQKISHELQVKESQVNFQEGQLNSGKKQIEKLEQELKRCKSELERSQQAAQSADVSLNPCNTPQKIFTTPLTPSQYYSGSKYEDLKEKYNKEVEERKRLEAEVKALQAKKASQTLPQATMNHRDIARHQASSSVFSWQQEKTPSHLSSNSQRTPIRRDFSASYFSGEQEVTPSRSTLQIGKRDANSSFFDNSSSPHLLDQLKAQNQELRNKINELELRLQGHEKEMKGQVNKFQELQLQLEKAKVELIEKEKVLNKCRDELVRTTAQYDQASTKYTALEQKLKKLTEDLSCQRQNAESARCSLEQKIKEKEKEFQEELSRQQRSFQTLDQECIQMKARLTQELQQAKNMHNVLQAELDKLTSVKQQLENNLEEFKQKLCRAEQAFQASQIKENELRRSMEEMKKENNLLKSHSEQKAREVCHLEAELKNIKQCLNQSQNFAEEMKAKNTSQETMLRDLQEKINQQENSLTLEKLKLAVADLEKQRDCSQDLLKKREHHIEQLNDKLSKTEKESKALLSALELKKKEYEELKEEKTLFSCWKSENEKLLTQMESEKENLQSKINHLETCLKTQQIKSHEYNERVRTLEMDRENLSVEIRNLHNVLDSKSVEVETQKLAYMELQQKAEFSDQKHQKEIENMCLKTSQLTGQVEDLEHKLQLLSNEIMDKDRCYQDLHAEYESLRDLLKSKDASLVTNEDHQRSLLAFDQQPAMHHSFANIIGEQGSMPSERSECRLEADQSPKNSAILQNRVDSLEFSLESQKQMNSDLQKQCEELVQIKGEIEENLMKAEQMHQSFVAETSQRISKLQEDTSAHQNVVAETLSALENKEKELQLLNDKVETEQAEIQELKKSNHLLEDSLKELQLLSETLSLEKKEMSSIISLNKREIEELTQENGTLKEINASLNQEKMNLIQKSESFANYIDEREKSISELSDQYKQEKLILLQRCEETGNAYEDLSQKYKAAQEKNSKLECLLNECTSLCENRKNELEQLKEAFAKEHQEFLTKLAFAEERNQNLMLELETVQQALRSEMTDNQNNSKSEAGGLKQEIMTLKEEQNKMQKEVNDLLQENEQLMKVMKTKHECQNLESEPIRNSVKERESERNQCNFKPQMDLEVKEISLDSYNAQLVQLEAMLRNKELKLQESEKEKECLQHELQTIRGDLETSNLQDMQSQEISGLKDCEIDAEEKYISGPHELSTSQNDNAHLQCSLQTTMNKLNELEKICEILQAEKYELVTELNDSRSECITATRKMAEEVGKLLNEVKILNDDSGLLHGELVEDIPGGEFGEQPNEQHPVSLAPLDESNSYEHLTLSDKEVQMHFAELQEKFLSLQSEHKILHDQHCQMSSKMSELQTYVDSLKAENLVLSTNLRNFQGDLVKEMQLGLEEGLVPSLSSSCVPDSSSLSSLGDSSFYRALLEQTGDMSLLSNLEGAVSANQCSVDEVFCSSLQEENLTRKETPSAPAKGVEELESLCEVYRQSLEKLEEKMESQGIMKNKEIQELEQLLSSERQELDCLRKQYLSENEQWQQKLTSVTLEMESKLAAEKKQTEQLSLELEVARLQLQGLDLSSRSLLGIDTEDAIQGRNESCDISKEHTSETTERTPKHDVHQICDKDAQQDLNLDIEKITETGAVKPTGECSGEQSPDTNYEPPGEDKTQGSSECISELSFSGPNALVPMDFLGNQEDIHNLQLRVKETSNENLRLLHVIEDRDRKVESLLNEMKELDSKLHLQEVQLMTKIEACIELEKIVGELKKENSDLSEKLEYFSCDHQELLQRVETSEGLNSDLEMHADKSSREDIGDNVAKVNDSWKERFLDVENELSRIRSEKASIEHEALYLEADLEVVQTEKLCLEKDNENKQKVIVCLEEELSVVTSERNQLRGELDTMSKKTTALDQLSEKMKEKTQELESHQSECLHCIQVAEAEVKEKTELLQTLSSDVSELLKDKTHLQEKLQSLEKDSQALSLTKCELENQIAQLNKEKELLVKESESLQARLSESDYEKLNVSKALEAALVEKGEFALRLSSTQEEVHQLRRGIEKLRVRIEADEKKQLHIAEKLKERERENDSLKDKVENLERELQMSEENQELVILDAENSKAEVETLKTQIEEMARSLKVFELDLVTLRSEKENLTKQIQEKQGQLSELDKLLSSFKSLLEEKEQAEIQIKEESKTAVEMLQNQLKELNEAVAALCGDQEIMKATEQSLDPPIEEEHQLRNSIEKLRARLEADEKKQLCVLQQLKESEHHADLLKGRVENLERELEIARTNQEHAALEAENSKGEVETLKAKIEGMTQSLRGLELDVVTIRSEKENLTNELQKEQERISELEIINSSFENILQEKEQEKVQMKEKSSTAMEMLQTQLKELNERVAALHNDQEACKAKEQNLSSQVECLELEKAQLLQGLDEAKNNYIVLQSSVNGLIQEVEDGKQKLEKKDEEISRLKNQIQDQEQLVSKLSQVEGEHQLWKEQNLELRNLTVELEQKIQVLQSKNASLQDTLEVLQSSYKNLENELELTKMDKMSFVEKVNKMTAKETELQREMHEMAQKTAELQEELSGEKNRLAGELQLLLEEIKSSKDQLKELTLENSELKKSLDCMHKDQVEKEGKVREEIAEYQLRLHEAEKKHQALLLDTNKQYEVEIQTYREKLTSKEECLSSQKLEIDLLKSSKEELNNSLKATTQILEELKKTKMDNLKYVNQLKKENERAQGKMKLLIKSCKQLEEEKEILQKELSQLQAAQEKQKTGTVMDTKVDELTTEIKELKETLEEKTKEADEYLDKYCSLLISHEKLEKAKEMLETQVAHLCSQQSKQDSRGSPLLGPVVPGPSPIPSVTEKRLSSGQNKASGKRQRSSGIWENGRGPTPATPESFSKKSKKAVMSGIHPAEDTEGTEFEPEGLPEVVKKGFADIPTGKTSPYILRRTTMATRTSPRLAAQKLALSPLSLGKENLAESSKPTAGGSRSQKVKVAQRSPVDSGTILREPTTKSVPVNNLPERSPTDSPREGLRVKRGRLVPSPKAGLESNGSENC

binding result: no binding
B1: Forkhead box protein M1 (FOXM1) (other)
chain: MKTSPRRPLILKRRRLPLPVQNAPSETSEEEPKRSPAQQESNQAEASKEVAESNSCKFPAGIKIINHPTMPNTQVVAIPNNANIHSIITALTAKGKESGSSGPNKFILISCGGAPTQPPGLRPQTQTSYDAKRTEVTLETLGPKPAARDVNLPRPPGALCEQKRETCDGEAAGCTINNSLSNIQWLRKMSSDGLGSRSIKQEMEEKENCHLEQRQVKVEEPSRPSASWQNSVSERPPYSYMAMIQFAINSTERKRMTLKDIYTWIEDHFPYFKHIAKPGWKNSIRHNLSLHDMFVRETSANGKVSFWTIHPSANRYLTLDQVFKQQQKRPNPELRRNMTIKTELPLGARRKMKPLLPRVSSYLVPIQFPVNQSLVLQPSVKVPLPLAASLMSSELARHSKRVRIAPKVLLAEEGIAPLSSAGPGKEEKLLFGEGFSPLLPVQTIKEEEIQPGEEMPHLARPIKVESPPLEEWPSPAPSFKEESSHSWEDSSQSPTPRPKKSYSGLRSPTRCVSEMLVIQHRERRERSRSRRKQHLLPPCVDEPELLFSEGPSTSRWAAELPFPADSSDPASQLSYSQEVGGPFKTPIKETLPISSTPSKSVLPRTPESWRLTPPAKVGGLDFSPVQTSQGASDPLPDPLGLMDLSTTPLQSAPPLESPQRLLSSEPLDLISVPFGNSSPSDIDVPKPGSPEPQVSGLAANRSLTEGLVLDTMNDSLSKILLDISFPGLDEDPLGPDNINWSQFIPELQ
notes: also called FKHL16; FOXM1B
